The conditions of the series: Weissella confusa, Thermal, reversible: No, whole UniProt chain shown.
[1] abbreviates: pH 6, DSC, Natrium phosphate Imidazol 50 mM 250 mM, NaCl 300 mM.
The mark [2] stands for this setting: pH 7, DSC, Natrium phosphate Imidazol 50 mM 250 mM, NaCl 300 mM.
Where [3] appears, read: pH 8, DSC, Natrium phosphate Imidazol 50 mM 250 mM, NaCl 300 mM.

B1: L-2-hydroxyisocaproate dehydrogenase wild type, P14295 (protein)
chain: MARKIGIIGLGNVGAAVAHGLIAQGVADDYVFIDANEAKVKADQIDFQDAMANLEAHGNIVINDWAALADADVVISTLGNIKLQQDNPTGDRFAELKFTSSMVQSVGTNLKESGFHGVLVVISNPVDVITALFQHVTGFPAHKVIGTGTLLDTARMQRAVGEAFDLDPRSVSGYNLGEHGNSQFVAWSTVRVMGQPIVTLADAGDIDLAAIEEEARKGGFTVLNGKGYTSYGVATSAIRIAKAVMADAHAELVVSNRRDDMGMYLSYPAIIGRDGVLAETTLDLTTDEQEKLLQSRDYIQQRFDEIVDTL
On to B1, for which the Tm turned out to be 56.8 °C (pH 6, CD, Potassium phosphate 5 mM); 62.5 °C under setting [1]; 57.2 °C (pH 6, DSC, Potassium phosphate 5 mM); 60.2 °C (pH 7, CD, Potassium phosphate 5 mM); 55.1 °C under setting [2]; 59.6 °C (pH 7, DSC, Potassium phosphate 5 mM). Also, the Tm reads like this: (pH 8, CD, Potassium phosphate 5 mM) 56.2 °C; under setting [3], 44.1 °C. For the same protein, the “unfolding enthalpy (calorimetric)” value under setting [1] stood at 222 kcal/mol, the “unfolding enthalpy (calorimetric)” value under setting [2] came to 203 kcal/mol and the “unfolding enthalpy (calorimetric)” value under setting [3] was 221 kcal/mol. Besides, the “unfolding enthalpy (van 't Hoff)” value under setting [1] is 227 kcal/mol, the “unfolding enthalpy (van 't Hoff)” value under setting [2] was found to be 202 kcal/mol and the “unfolding enthalpy (van 't Hoff)” value under setting [3] was determined as 225 kcal/mol.
